Assay results taken from patent US20240325526A1.

Assays:
[1] = target: IL1B_FL (Mus musculus wild-type pro-IL1β) (Mus musculus) (UniProt P10749); experiment: cell-based or functional assay
[2] = target: hIL1B_FL (human wild-type pro-IL1β)
[3] = target: T1, IL1B_FL (Mus musculus wild-type pro-IL1β)
T1 chain: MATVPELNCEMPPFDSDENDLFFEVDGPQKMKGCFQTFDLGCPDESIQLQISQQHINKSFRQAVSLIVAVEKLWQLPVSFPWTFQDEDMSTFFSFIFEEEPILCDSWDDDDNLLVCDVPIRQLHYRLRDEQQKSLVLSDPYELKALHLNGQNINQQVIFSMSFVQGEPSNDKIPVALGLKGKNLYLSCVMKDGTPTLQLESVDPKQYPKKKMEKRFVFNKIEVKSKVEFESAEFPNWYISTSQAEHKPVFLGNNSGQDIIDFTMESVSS

Molecule | ability to process pro-IL1β (data not shown) [2] | ability to process pro-IL1β (data not shown) [3] | further results
CASP1_RV2 (constitutively active murine caspase-1, p10 and p20 domain reversal, N-terminal p20 remnant removed) (from UniProt P29452 92-296) (enzyme) |  |  | potency against CASP1 WT; IL-1β and LDH activity in supernatants of B16-F10 cells co-transfected with pro-IL1β plasmid [1]: 30 fold
hCASP1_RV2_D108A (protein) MGNLSLPTTEEFEDDAIKKAHIEKDFIAFCSSTPDNVSWRHPTMGSVFIGRLIEHMQEYACSCDVEEIFRKVRFSFEQPDGRAQMPTTERVTLTRCFYLFPGHAYVHAAPVRDQTSGNYLNMQDSQGVLSSFPAPQAVQDNPAMPTSSGSEGNVKLCSLEEAQRIWKQKSAEIYPIMDKSSRTRLALIICNEEFDSIPRRTGAEVDITGMTMLLQNLGYSVDVKKNLTASDMTTELEAFAHRPEHKTSDSTFLVFMSHGIREGICGKKHSEQVPDILQLNAIFNMLNTKNCPSLKDKPKVIIIQACRGDSPGVVWFKD | did not significantly affect their ability to process pro-IL1β |  | 
hCASP1_RV2_D124A (protein) MGNLSLPTTEEFEDDAIKKAHIEKDFIAFCSSTPDNVSWRHPTMGSVFIGRLIEHMQEYACSCDVEEIFRKVRFSFEQPDGRAQMPTTERVTLTRCFYLFPGHAYVHDAPVRDQTSGNYLNMQASQGVLSSFPAPQAVQDNPAMPTSSGSEGNVKLCSLEEAQRIWKQKSAEIYPIMDKSSRTRLALIICNEEFDSIPRRTGAEVDITGMTMLLQNLGYSVDVKKNLTASDMTTELEAFAHRPEHKTSDSTFLVFMSHGIREGICGKKHSEQVPDILQLNAIFNMLNTKNCPSLKDKPKVIIIQACRGDSPGVVWFKD | did not significantly affect their ability to process pro-IL1β |  | 
hCASP1_RV2_D140A (protein) MGNLSLPTTEEFEDDAIKKAHIEKDFIAFCSSTPDNVSWRHPTMGSVFIGRLIEHMQEYACSCDVEEIFRKVRFSFEQPDGRAQMPTTERVTLTRCFYLFPGHAYVHDAPVRDQTSGNYLNMQDSQGVLSSFPAPQAVQANPAMPTSSGSEGNVKLCSLEEAQRIWKQKSAEIYPIMDKSSRTRLALIICNEEFDSIPRRTGAEVDITGMTMLLQNLGYSVDVKKNLTASDMTTELEAFAHRPEHKTSDSTFLVFMSHGIREGICGKKHSEQVPDILQLNAIFNMLNTKNCPSLKDKPKVIIIQACRGDSPGVVWFKD | did not significantly affect their ability to process pro-IL1β |  | 
CASP1_RV2_D143A (protein) MSEEDFLTDAIFEDDGIKKAHIEKDFIAFCSSTPDNVSWRHPVRGSLFIESLIKHMKEYAWSCDLEDIFRKVRFSFEQPEFRLQMPTADRVTLTKRFYLFPGHLLVCDVPIRAPSAETFVATEDSKGGHPSSSETKEEQNKEAGTFPGLTGTLKFCPLEKAQKLWKENPSEIYPIMNTTTRTRLALIICNTEFQHLSPRVGAQVDLREMKLLLEDLGYTVKVKENLTALEMVKEVKEFAACPEHKTSDSTFLVFMSHGIQEGICGTTYSNEVSDILKVDTIFQMMNTLKCPSLKDKPKVIIIQACRGEKQGVVLLKD |  | did not significantly affect their ability to process pro-IL1β | 
CASP1_RV2_D124A (protein) MSEEDFLTDAIFEDDGIKKAHIEKDFIAFCSSTPDNVSWRHPVRGSLFIESLIKHMKEYAWSCDLEDIFRKVRFSFEQPEFRLQMPTADRVTLTKRFYLFPGHLLVCDVPIRAPSAETFVATEASKGGHPSSSETKEEQNKEDGTFPGLTGTLKFCPLEKAQKLWKENPSEIYPIMNTTTRTRLALIICNTEFQHLSPRVGAQVDLREMKLLLEDLGYTVKVKENLTALEMVKEVKEFAACPEHKTSDSTFLVFMSHGIQEGICGTTYSNEVSDILKVDTIFQMMNTLKCPSLKDKPKVIIIQACRGEKQGVVLLKD |  | did not significantly affect their ability to process pro-IL1β | 
CASP1_RV2_D108A_D124A_D143A (protein) MSEEDFLTDAIFEDDGIKKAHIEKDFIAFCSSTPDNVSWRHPVRGSLFIESLIKHMKEYAWSCDLEDIFRKVRFSFEQPEFRLQMPTADRVTLTKRFYLFPGHLLVCAVPIRAPSAETFVATEASKGGHPSSSETKEEQNKEAGTFPGLTGTLKFCPLEKAQKLWKENPSEIYPIMNTTTRTRLALIICNTEFQHLSPRVGAQVDLREMKLLLEDLGYTVKVKENLTALEMVKEVKEFAACPEHKTSDSTFLVFMSHGIQEGICGTTYSNEVSDILKVDTIFQMMNTLKCPSLKDKPKVIIIQACRGEKQGVVLLKD |  | did not significantly affect their ability to process pro-IL1β | 
CASP1_RV2_D108A (protein) MSEEDFLTDAIFEDDGIKKAHIEKDFIAFCSSTPDNVSWRHPVRGSLFIESLIKHMKEYAWSCDLEDIFRKVRFSFEQPEFRLQMPTADRVTLTKRFYLFPGHLLVCAVPIRAPSAETFVATEDSKGGHPSSSETKEEQNKEDGTFPGLTGTLKFCPLEKAQKLWKENPSEIYPIMNTTTRTRLALIICNTEFQHLSPRVGAQVDLREMKLLLEDLGYTVKVKENLTALEMVKEVKEFAACPEHKTSDSTFLVFMSHGIQEGICGTTYSNEVSDILKVDTIFQMMNTLKCPSLKDKPKVIIIQACRGEKQGVVLLKD |  | did not significantly affect their ability to process pro-IL1β | 
